Data reported in publication PMC314469, “Protein Interaction Networks by Proteome Peptide Scanning” (PLoS Biology, 2004).

T1: amphyphisin SH3 (AMPH_HUMAN), P49418
T1 chain: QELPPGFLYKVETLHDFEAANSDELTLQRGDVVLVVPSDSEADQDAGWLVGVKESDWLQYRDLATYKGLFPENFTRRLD


Experiments:
[1] = target: T1, amphyphisin SH3 (AMPH_HUMAN), P49418; assay: SPOT array
[2] = target: endophilin SH3 (SH3G2_HUMAN), Q99962; assay: SPOT array

Binder	normalised SPOT signal, Boehringer light units (BLU); mean over the file's lines of this peptide [1]	normalised SPOT signal, Boehringer light units (BLU); mean over the file's lines of this peptide [2]
DKADLIRPKRKYEK [Q9H2F5 327-340]	417	64.3
DKKSPTRPKRQAKP [Q9P2W5 3-16]	3780	500
DKSPPPRPPSSPYP [O15550 915-929]	58.2	4090
DNLKLFRPKKLLPK [Q9BQL6 374-387]	41.9	71.6
DESRIRRPMNAFMV [P35713 81-94]	69.5	94.4
DKKSPTRPKRHAKP [Q99710 3-16]	4130	658
DEVWFKRPDGSKSK [Q9BRI4 246-259]	30	60.8
DLLSPRRPPDDPWA [BAC03422 263-277]	20.5	83
DNIPLSRPKRNLSR [Q9Y4P9 18-31]	1930	138
DLHPPPRPPSPTEI [O43154 1259-1273]	64.8	2640
AEEQLRRPRIVHVG [Q9UBR1 62-75]	24.5	35.1
DGKFLLRPRKEQGT [P43403 184-197]	424	130
DESSPRRPDYLKGL [Q99698 2220-2233]	23.9	28
DGSFLARPSKSNPG [Q06124 26-39]	96.2	36.7
DGKDPRRPKRPRTI [O60663 189-202]	3740	85
DMQSFRRPSAASID [Q96QH2 513-526]	16.7	56
DGRLLYRPNKAGET [Q9ULH0 399-412]	20	44.6
DMAIPSKPPAASPE [Q8TEH3 531-545]	40.1	80
DLSGLKRPSSSAST [Q9Y338 401-414]	31.5	27.9
DKIPFKRPSTYGVP [O95444 394-407]	35.1	67.7
DPEDLKRPDPASLK [Q8WTY4 218-231]	16.1	82.4

Binder	normalised SPOT signal, Boehringer light units (BLU); mean over the file's lines of this peptide [1]	normalised SPOT signal, Boehringer light units (BLU); mean over the file's lines of this peptide [2]
DIPEPRRPVVEQAL [O15031 1306-1319]	37.2	41.3
DFYEPRRPEDDDPT [Q96IE0 67-80]	0	50.1
DEGSLRRPGRLTST [Q96ML9 142-155]	81.1	28.2
DGDPLKRPLLGIVQ [O75060 326-339]	18.7	41.8
DIKPLKRPRDEDDA [P11387 132-145]	37.9	0
AEEPLHRPKKELSA [P42858 83-96]	134	70.2
DNGGFKRPLAPSGR [Q9Y5U2 118-131]	31.7	98.6
DEPEPPRPRRGSLR [O43157 1891-1904]	3590	126
DGRTPLRPSRNTKQ [Q9H0H1 56-69]	14900	287
DELEPRRPRYRVPD [Q14697 104-117]	35.4	26.4
ADVDPQRPPRPEVK [Q9ULR6 191-204]	2760	125
DKNIPMKPPTPLLN [AAM33634 99-113]	58.3	240
DKLSPDRPIRDTRH [Q9ULT9 130-143]	3530	794
AAESPGRPPPTAAE [Q9UPS7 514-528]	22	51.1
DGEMFMRPGKLFDY [P08574 161-174]	117	72.5
DKSPPPRPPTSPYP [O14607 862-876]	83.4	4530
DFPKPKKPPPPAKA [Q9Y5K6 333-347]	33	8340
DGVSLSRPGRTADS [P39191 408-421]	200	113
DIPGPTRPPGQVLS [AAH30713 119-133]	75	85.2
DLPGPRRPAAAAAM [Q9NQ62 12-25]	33.3	66
DPEVLKRPEYFGKF [Q9NZN6 122-135]	43.9	108
